These results are taken from patent US20180271994A1 (published 2018).

Experiment [1] deals with immunodominant epitope of the MUC18 antigen. The experiment in a line: phage ELISA, peptide coated at 100 ug/ml (control phage).
The target of experiment [2] is unrelated peptide. The experiment in a line: phage ELISA, well with unrelated peptide (control). Background: An ELISA detects its analyte on a solid surface through an enzyme-linked reagent.
Experiment [3] has as its target immunodominant epitope of the MUC18 antigen. The experiment is described as follows: phage ELISA, peptide coated at 100 ug/ml.
Experiment [4] shares this target. The experiment is described as follows: phage ELISA, peptide well against negative control well.
Experiment [5] addresses T1, MUC18 antigen (human, UniProt P43121 24-646).
T1 sequence (looked up): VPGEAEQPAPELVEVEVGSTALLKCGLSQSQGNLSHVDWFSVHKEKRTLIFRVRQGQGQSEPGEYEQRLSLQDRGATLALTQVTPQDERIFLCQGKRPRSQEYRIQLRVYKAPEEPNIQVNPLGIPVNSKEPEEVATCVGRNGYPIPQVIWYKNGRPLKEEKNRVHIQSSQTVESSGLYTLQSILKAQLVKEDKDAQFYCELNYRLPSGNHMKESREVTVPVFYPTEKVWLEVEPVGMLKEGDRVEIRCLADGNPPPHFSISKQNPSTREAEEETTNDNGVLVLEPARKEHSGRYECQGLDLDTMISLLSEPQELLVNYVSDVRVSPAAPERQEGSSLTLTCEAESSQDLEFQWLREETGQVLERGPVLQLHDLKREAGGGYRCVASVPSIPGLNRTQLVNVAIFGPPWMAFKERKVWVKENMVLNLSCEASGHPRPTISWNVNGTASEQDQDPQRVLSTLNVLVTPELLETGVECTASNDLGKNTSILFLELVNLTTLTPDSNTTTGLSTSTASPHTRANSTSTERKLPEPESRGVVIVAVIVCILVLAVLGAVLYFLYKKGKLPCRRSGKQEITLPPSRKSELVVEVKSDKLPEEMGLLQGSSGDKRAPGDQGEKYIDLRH
The experiment in a line: cell-based or functional assay.

For unrelated phage, the mean absorbance (OD 450 nm) in experiment [1] was determined as 0.17 OD450.

B1: anti-MUC18 HscFv-displaying phage (scFv)
scFv: GRGALVESGPGLVKPSETLFLTCTVSGGSISSYYWSWIRQPAGKGLEWIAYIYYSGSTNYNPSLKSRVTISVDTSNNQFSLKLSSVTAADTAVYYCAKLTAAGGHFDPWGQGTLVTVSSGGGGSGGGGSGGGGSDIVMTQSPSSLSASIGDRVTITCRASQGISNFLAWFQQKPGKAPKSLIYAASSLQSGVPSKFSGSGSGTDFTLAISSLQPEDFATYYCLQDSDYPLTFGGGTKLEIKR
On to B1, for which the mean absorbance (OD 450 nm) was found to be 0.1 OD450 in experiment [2] and 1.6 OD450 in experiment [3]. The fold OD over negative control well in experiment [4] turned out to be 4 fold.

B2: anti-MUC18 human immunotoxin (other)
chain: GRGALVESGPGLVKPSETLFLTCTVSGGSISSYYWSWIRQPAGKGLEWIAYIYYSGSTNYNPSLKSRVTISVDTSNNQFSLKLSSVTAADTAVYYCAKLTAAGGHFDPWGQGTLVTVSSGGGGSGGGGSGGGGSDIVMTQSPSSLSASIGDRVTITCRASQGISNFLAWFQQKPGKAPKSLIYAASSLQSGVPSKFSGSGSGTDFTLAISSLQPEDFATYYCLQDSDYPLTFGGGTKLEIKRASGGPEGGSRHRQPRGWEQLADVVSLTCPVAAGECAGPADSGDALLERNYPTGAEFLGDGGAISFSTRGTQNWTVERLLQAHRQLEEGGYVFVGYHGTFLEAAQSIVFGGVRARSQDLDAIWAGFYIAGDPALAYGYAQDQEPDAAGRIRNGALLRVYVPRSSLPGFYATGLTLAAPEAAGEVERLIGHPLPLRLDAITGPEEAGGRLETILGWPLAERTVVIPSAIPTDPRNVGGDLDPSSIPDSEAAISALPDYASQPGKPPKDEL
As to B2, in experiment [5], the “IC50, MTT assay, A375 cells, 24 hours” value was approximately 2.1 nM and the “IC50, MTT assay, DU145 cells, 24 hours” value was approximately 6.1 nM.
